This is an account of results in patent US7507716B2, “Method for treating pain with prolactin antagonists” (Board of Regents, The University of Texas System, priority 2005, dated 2009).

In assay [1] the test system is TG neurons. Put plainly: Capsaicin-evoked iCGRP release from cultured TG neurons (RIA). The note with it: PRL 40 nM, capsaicin 50 nM. In kind it is cell-based, rat. Here is the method: Release of iCGRP from cultured neurons was measured by radioimmunoassay. Data are presented as mean % of vehicle±SEM (n=4/group, *=P<0.05 and **=P<0.01 vs. iCGRP levels of each control group; two-tailed unpaired T test).
Rat trigeminal ganglia (TG) primary cultures: The TG from ovariectomized or intact female rats were quickly removed after decapitation and neuronal cultures were prepared as previously described (Fehrenbacher et al., 2005; Patwardhan et al., 2005). The trypsin treatment was omitted in TG cultures prepared for electrophysiological recording and Ca^2+ imaging. Cells were plated on 24 well Poly-D-Lysine coated plates (for iCGRP experiments), 6 well Poly-D-Lysine plates (for PRL release experiments), Poly-D-Lysine/laminin-coated coverslips (for single cell studies) or 10 cm plates (for phosphorylation experiments), respectively. The TG cultures were maintained at 37° C. and 5% CO2. […] The media were replaced at the end of 24 h and then 48 h later.
CGRP release assay: All culture experiments were performed on day 5 at 37° C. using modified Hanks (Gibco) buffer (10.9 mM HEPES, 4.2 mM sodium bicarbonate, 10 mM dextrose and 0.1% bovine serum albumin were added to 1× Hanks). After two initial washes, a 15 min baseline sample was collected. […]

Assay [2] deals with TG neurons. Briefly: Patch clamp, heat-evoked currents (Iheat). In kind it is cell-based, rat. The note with it: neurons from intact female rats. The method, then:
TRPV1 is known to be activated by noxious heat (>42° C). Furthermore, this effect is itself sensitized by hyperalgesic agents such as bradykinin (Cesare et al., 1999) and NGF (Chuang et al., 2001; Zhu et al., 2004). To determine whether PRL sensitizes heat-evoked currents (Iheat), the effect that pre-treatment of intact female rat TG neurons with PRL has on Iheat was examined. […] Data are presented as mean±SEM (n=8-12/group, ***=p<0.001 versus vehicle control; two-tailed unpaired T test). […] (FIG. 6B) and 48° C. (FIG. 6C). Data are presented as mean±SEM (n=8-12/group, ***=p<0.001 versus vehicle control; two-tailed unpaired T test). FIG. 6D and FIG. 6E are representative traces of Iheat recordings from TG neurons pretreated with PRL or vehicle (6D); and plotting Iheat as a function of temperature (FIG. 6E). PRL lowered the activation temperature threshold and increased the magnitude of Iheat. In addition, the magnitude of the Iheat evoked at 43° C. (I43) and 48° C. (I48) points in neurons pretreated with prolactin or vehicle was measured.
Patch Clamp Electrophysiology: All recordings were performed in whole-cell voltage-clamp (Vh=−60 mV) configuration. Recordings were acquired at 22-24° C. from the somata of neurons (15-45 pF) using an Axopatch200B amplifier and pCLAMP9.0 software (Axon Instruments, Union City, Calif.). Data were filtered at 0.5 kHz and sampled at 2 kHz. Borosilicate pipettes (Sutter, Novato, Calif.) were polished to resistances of 3-5 MΩ in pipette solution. Access resistance was compensated (40-80%) to 7-10 MΩ values when appropriate. Cell diameters were calculated using d=√[100*Cm/π], where d (μm) is cell diameter and Cm (pF) is membrane capacitance.
For the recording of heat-activated currents (Iheat), SES was heated on-line by a Peltier device (Warner Instruments, Hamden, Conn.) and locally delivered via a glass tube positioned in close proximity to the neuron. Temperature values were acquired with a thermister probe (0.5-1.5 mm size; Harvard Apparatus, Holliston, Mass.) situated at the orifice of the glass tube for local delivery of heated SES. […]
For orientation: In patch-clamp work, channel activity is measured electrically.

B1: PRL: Ovine PRL [oPRL-21, BIO] provided by NHPP; prolactin polypeptide hormone (protein, UniProt P01240 31-229, looked up)
Prolactin: TPVCPNGPGNCQVSLRDLFDRAVMVSHYIHNLSSEMFNEFDKRYAQGKGFITMALNSCHTSSLPTPEDKEQAQQTHHEVLMSLILGLLRSWNDPLYHLVTEVRGMKGVPDAILSRAIEIEEENKRLLEGMEMIFGQVIPGAKETEPYPVWSGLPSLQTKDEDARHSAFYNLLHCLRRDSSKIDTYLKLLNCRIIYNNNC
Regarding B1, the entries for the “PRL sensitization of capsaicin-evoked iCGRP release” value with TG neurons [1] (OVX TG neurons cultured 5 days with 50 nM estradiol) and in the assay with TG neurons [1] (OVX TG neurons cultured in the absence of E2) were “significantly restored” and “no effect was observed”, respectively. For the same molecule, the “threshold temperature for Iheat activation” value in the assay with TG neurons [2] (PRL 40 nM for 5 min, n=16, vehicle 41.9±0.67) worked out at 36.8±0.58 °C. Moreover, in the assay on TG neurons [2] (PRL pretreatment), the “inward currents evoked by 43° C. (I43)” value is given as “significantly increased”. Besides, in the assay on TG neurons [2] (PRL pretreatment), the “inward currents evoked by 48° C. (I48)” value was “significantly increased”.
